Assay results: PMC10909783

What was measured:
Assay in all cases: BLI
[1] = system: LGP2 K30G (Mus musculus); settings: no ATP stated; 3'-biotin; BLI and EMSA: 20 mM Hepes pH 7.4, 0.15 M KCl, 1 mM TCEP; EMSA 15 min at 4 C with 1 uM protein and 100 ng nucleic acid; BLI with 0.1 or 1 uM protein …
[2] = target: MDA5 WT (dL2);LGP2 WT del646-663 (Mus musculus;Mus musculus) (UniProt Q8R5F7); settings: MDA5-LGP2 mixture, apparent Kd; 3'-biotin; BLI and EMSA: 20 mM Hepes pH 7.4, 0.15 M KCl, 1 mM TCEP; EMSA 15 min at 4 C with 1 uM protein and 100 ng nucleic …; BLI with 0.1 or 1 uM protein, temperature
[3] = target: T1, MDA5 WT (dL2) del646-663 (Mus musculus) (UniProt Q8R5F7); settings: 3'-biotin, BLI and EMSA: 20 mM Hepes pH 7.4, 0.15 M KCl, 1 mM TCEP, EMSA 15 min at 4 C with 1 uM protein and 100 ng nucleic acid, BLI with 0.1 or 1 uM protein …
T1 sequence: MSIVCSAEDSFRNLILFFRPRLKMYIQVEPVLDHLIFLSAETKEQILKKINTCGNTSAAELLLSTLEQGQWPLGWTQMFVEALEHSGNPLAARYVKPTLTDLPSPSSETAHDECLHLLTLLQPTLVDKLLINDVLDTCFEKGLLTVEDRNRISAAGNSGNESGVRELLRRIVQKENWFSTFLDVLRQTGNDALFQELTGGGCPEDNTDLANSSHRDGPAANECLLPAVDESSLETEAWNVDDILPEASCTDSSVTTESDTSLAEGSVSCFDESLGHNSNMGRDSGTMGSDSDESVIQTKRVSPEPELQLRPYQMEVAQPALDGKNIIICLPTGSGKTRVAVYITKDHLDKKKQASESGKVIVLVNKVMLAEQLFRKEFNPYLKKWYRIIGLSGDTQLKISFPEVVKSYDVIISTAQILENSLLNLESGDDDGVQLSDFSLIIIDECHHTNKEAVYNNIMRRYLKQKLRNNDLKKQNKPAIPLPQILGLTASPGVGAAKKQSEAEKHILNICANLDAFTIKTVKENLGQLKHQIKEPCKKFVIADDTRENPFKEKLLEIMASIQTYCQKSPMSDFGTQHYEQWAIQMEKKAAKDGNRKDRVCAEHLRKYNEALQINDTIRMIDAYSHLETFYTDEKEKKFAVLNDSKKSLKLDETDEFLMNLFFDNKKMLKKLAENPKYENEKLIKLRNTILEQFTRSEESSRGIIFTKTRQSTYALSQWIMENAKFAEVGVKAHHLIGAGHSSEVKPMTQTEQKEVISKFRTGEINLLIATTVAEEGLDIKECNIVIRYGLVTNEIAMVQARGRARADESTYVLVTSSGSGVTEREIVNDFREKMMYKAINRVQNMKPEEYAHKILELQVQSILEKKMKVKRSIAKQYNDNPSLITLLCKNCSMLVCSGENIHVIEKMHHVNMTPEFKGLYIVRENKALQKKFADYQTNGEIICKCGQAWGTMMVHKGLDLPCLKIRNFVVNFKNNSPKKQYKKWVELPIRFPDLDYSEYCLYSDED

[4] = system: LGP2 WT (Mus musculus); settings: 3'-biotin, BLI and EMSA: 20 mM Hepes pH 7.4, 0.15 M KCl, 1 mM TCEP, EMSA 15 min at 4 C with 1 uM protein and 100 ng nucleic acid, BLI with 0.1 or 1 uM protein …
[5] = target: MDA5 WT (dL2);LGP2 K30G del646-663 (Mus musculus;Mus musculus) (UniProt Q8R5F7); settings: MDA5-LGP2 K30G mixture; 3'-biotin; BLI and EMSA: 20 mM Hepes pH 7.4, 0.15 M KCl, 1 mM TCEP; EMSA 15 min at 4 C with 1 uM protein and 100 ng nucleic acid; BLI with 0.1 or 1 uM protein …

Row | Substance | Kd [1] [nM] | Kd [2] [nM] | Kd ([3]; no ATP stated) [nM] | Kd [4] [nM] | Kd ([4]; no ATP stated) [nM] | Kd [3] [nM] | Kd [5] [nM]
1 | 1-kb dsRNA, 3'-biotin | 1300 | 520 | 1300 | 48 | 70 |  | 
2 | 40-nt ssRNA, 3'-biotin |  |  |  |  |  | 2600 | 1840
3 | 300-bp dsRNA, 3'-biotin |  |  |  |  |  | 1310 | 
